Our source for the response values is publication PMC11661448.

The labels stand for the following.
B1: EFR3A (721 to 791) [human] / TTC7B-FAM126A (1 to 308) [human] (parent)
chain 1: MATKKAGSRLETEIERCRSECQWERIPELVKQLSAKLIANDDMAELLLGESKLEQYLKEHPLRQGASPRGPKPQLTEVRKHLTAALDRGNLKSEFLQESNLIMAKLNYVEGDYKEALNIYARVGLDDLPLTAVPPYRLRVIAEAYATKGLCLEKLPISSSTSNLHVDREQDVITCYEKAGDIALLYLQEIERVILSNIQNRSPKPGPAPHDQELGFFLETGLQRAHVLYFKNGNLTRGVGRFRELLRAVETRTTQNLRMTIARQLAEILLRGMCEQSYWNPLEDPPCQSPLDDPLRKGANTKTYTLTRRARVYSGENIFCPQENTEEALLLLLISESMANRDAVLSRIPEHKSDRLISLQSASVVYDLLTIALGRRGQYEMLSECLERAMKFAFEEFHLWYQFALSLMAAGKSARAVKVLKECIRLKPDDATIPLLAAKLCMGSLHWLEEAEKFAKTVVDVGEKTSEFKAKGYLALGLTYSLQATDASLRGMQEVLQRKALLAFQRAHSLSPTDHQAAFYLALQLAISRQIPEALGYVRQALQLQGDDANSLHLLALLLSAQKHYHDALNIIDMALSEYPENFILLFSKVKLQSLCRGPDEALLTCKHMLQIWKSCYNLTNPSDSGRGSSLLDRTIADRRQLNTITLPDFSDPETGSVHATSVAASRVEQALSEVASSLQSSAPKQGPLHPWMTLAQIWLHAAEVYIGIGKPAEATACTQEAANLFPMSHNVLYMRGQIAELRGSMDEARRWYEEALAISPTHVKSMQRLALILHQLGRYSLAEKILRDAVQVNSTAHEVWNGLGEVLQAQGNDAAATECFLTALELEASSPAVPFTIIPRVL
chain 2: MFTSEKGVVEEWLSEFKTLPETSLPNYATNLKDKSSLVSSLYKVIQEPQSELLEPVCHQLFEFYRSGEEQLLQFTLQFLPELIWCYLAVSASRNVHSSGCIEALLLGVYNLEIVDKQGHTKVLSFTIPSLSKPSVYHEPSSIGSMALTESALSQHGLSKVVYSGPHPQREMLTAQNRFEVLTFLLLCYNAALTYMPSVSLQSLCQICSRICVCGYPRQHVRKYKGISSRIPVSSGFMVQMLTGIYFAFYNGEWDLAQKALDDIIYRAQLELYPEPLLVANAIKASLPHGPMKSNKEGTRCIQVEITPT
chain 3: SNTEEITFEALKKAIDTSGMEEQEKEKRRLVIEKFQKAPFEEIAAQCESKANLLHDRLAQILELTIRPPPS

Variants of B1 are the subject of the first test. Nature of the test: BLI. The note with it: with TTC7B-FAM126A (1 to 308) [human]; His-EFR3A loaded on the anti-penta-His tip at 200 nM, TTC7B-FAM126A at 500 nM; 25°C; 20 mM HEPES (pH 7.5), 150 mM NaCl; read off a plot.
For the variant chain 3 K12E, the response is 0.27 nm.
Still for that read-out and setting: in the case of chain 3 L11A it was 0.01 nm; in that of chain 3 L11R, 0.17 nm.
In the case of chain 3 I43A, the response worked out at 0.45 nm.
As to chain 3 A14R, the response was found to be 0.23 nm.
The same measure, in the same setting: under chain 3 F40A stands 0.84 nm; under chain 3 K50E, 0.82 nm.
chain 3 I61A: the response came to 1.5 nm.
For the variant chain 3 F8A, the response was 0.47 nm.
For the variant chain 3 F35A, the response is -0.02 nm.
For the variant chain 3 R57E, the response was determined as 1.3 nm.

The test is the same for the next values; noted with them: with EFR3A (721 to 791) [human]; His-EFR3A loaded on the anti-penta-His tip at 200 nM, TTC7B-FAM126A at 500 nM; 25°C; 20 mM HEPES (pH 7.5), 150 mM NaCl; read off a plot.
In the case of chain 2 L106F, the response is 1.1 nm.
Consider chain 2 H58E, for which the response worked out at 1.6 nm.
Consider chain 1 W699A, for which the response was found to be 1.4 nm.
Turning to chain 1 L610A, the response was 0.85 nm.
For chain 1 A702R, the response was -0.07 nm.
For the variant chain 2 F61A, the response turned out to be 0.37 nm.
The same measure, in the same setting: under chain 1 R539E stands 1.2 nm; under chain 2 A103R, 0.08 nm.
